Earlier results as cited in PMC4681696.

Target: p75NTR (Homo sapiens) (UniProt P08138)
UniProt P08138, sequence (P08138 29-250): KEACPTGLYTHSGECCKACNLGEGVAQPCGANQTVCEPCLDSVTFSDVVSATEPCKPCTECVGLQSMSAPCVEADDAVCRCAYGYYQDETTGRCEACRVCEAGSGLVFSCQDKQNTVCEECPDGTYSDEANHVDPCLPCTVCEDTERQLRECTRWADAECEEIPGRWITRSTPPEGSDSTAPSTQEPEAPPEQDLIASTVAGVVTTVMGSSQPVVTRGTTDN

- Kd: 7 nM
Substance: NGF (from UniProt P01138)
